Measurements as given in article PMC10720262, “Molecular determinants of cross-reactivity and potency by VH3-33 antibodies against the Plasmodium falciparum circumsporozoite protein” (Cell Reports, 2023).

Columns and labels:
mAb 317 [1] = experiment: SPR
mAb CIS43 [2] = experiment: SPR
mAb 317 [3] = experiment: SPR; Carterra LSA; mAb amine-coupled to a CMD200M chip, peptide titrated in 2-fold steps up to 8 ug/mL without regeneration; 25 C; HBSTE (10 mM HEPES pH 7.4, 150 mM NaCl, 3 mM EDTA, 0.01% Tween 20); 1:1 Langmuir model; mean of triplicates; KD includes avidity for antigens with several repeats
mAb CIS43 [4] = experiment: as above

Sequence of mAb CIS43 (heavy, as listed by the source, chain 1 of 2): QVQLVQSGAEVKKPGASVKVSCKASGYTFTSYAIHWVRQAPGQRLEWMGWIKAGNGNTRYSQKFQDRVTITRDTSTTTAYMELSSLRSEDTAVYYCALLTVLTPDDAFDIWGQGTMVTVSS
Sequence of mAb CIS43 (light, as listed by the source, chain 2 of 2): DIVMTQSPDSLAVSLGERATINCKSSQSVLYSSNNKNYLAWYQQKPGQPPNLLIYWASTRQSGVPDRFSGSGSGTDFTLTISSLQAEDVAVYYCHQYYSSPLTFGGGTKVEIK
Sequence of mAb 317 (heavy, as listed by the source, chain 1 of 2): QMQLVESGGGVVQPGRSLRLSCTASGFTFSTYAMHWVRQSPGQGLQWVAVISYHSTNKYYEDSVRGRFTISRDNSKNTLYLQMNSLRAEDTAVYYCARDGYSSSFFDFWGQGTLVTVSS
Sequence of mAb 317 (light, as listed by the source, chain 2 of 2): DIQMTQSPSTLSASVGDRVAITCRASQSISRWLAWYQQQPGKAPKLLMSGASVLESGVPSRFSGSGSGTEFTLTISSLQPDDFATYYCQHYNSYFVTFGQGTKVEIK

| Substance | Kd (mAb 317 [1]) [nM] | koff (mAb 317 [1]) [s⁻¹] | kon (mAb 317 [1]) [M⁻¹ s⁻¹] | Kd (mAb CIS43 [2]) [nM] | Kd (mAb 317 [3]) [nM] | koff (mAb 317 [3]) [s⁻¹] | kon (mAb 317 [3]) [M⁻¹ s⁻¹] | Kd (mAb CIS43 [4]) [nM] | koff (mAb CIS43 [4]) [s⁻¹] | kon (mAb CIS43 [4]) [M⁻¹ s⁻¹] |
| --- | --- | --- | --- | --- | --- | --- | --- | --- | --- | --- |
| NANP3 peptide | 16.6 | 0.0206 | 1.24e+06 | 1720 | – | – | – | – | – | – |
| NPDP peptide | – | – | – | – | 4560 | 0.0454 | 10000 | 19.1 | 0.00216 | 113000 |
| NPNA3 peptide | – | – | – | – | 7.03 | 0.00138 | 197000 | 9430 | 0.0706 | 7940 |
